# Data published in publication doi:10.1101/2024.12.13.628402 (bioRxiv, 2024).
# T1: His6-YidC (E. coli, UniProt P25714 1-548)
# T1 sequence (looked up): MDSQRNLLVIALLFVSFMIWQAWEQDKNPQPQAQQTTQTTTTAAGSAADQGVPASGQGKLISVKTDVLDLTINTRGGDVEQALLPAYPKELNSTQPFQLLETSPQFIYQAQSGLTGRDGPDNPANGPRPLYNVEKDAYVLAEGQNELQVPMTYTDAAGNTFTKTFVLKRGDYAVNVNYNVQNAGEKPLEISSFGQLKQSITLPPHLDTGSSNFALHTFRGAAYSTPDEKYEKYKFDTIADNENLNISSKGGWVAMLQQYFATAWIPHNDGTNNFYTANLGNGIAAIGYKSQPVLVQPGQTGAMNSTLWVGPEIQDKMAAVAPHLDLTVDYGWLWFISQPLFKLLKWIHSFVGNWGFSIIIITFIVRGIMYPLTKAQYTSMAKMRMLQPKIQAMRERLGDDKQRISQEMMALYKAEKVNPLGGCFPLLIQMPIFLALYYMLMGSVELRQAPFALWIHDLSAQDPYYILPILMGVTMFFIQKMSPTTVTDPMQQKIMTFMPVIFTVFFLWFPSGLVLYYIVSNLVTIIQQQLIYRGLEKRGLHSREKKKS
# B1: YibN-His6 (natural protein, E. coli, UniProt P0AG27 1-143, looked up)
# chain: MQEIMQFVGRHPILSIAWIALLVAVLVTTFKSLTSKVKVITRGEATRLINKEDAVVVDLRQRDDFRKGHIAGSINLLPSEIKANNVGELEKHKDKPVIVVDGSGMQCQEPANALTKAGFAQVFVLKEGVAGWAGENLPLVRGK
# Target: T1, His6-YidC
# Assay: native gel or EMSA
binder,measurement,value
B1,binding result,binds
